System: O=[N+]([O-])c1ccc(O[C@@H]2O[C@H](CO)[C@@H](O)[C@H](O)[C@H]2O)cc1
Experiment: purified protein
Conditions: 37 °C, 20 mM phosphate buffer pH 7.0, 1-20 mM pNPG

Sequence of RpBgl8 (Reticulitermes perilucifugus) (chain, as listed by the source): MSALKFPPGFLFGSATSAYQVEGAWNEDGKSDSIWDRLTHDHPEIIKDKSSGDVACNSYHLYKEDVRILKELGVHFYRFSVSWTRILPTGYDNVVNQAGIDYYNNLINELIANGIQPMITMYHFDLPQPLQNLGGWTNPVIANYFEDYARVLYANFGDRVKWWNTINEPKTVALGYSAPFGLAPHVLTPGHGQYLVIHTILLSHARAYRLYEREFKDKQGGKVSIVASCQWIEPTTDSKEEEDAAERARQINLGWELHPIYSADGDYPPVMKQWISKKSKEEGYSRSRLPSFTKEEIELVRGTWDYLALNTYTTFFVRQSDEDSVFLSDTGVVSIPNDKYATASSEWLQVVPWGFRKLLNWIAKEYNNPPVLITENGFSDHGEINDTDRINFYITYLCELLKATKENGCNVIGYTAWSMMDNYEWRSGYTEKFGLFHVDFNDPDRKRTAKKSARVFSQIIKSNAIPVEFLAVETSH

RpBgl8 (Reticulitermes perilucifugus)
Km: 5.4 mM
kcat: 0.17 s⁻¹
